Biological target: recombinant human PCSK9, V5-, His-tagged (human, UniProt Q8NBP7 31-692)
Assay: cell-based or functional assay

Chain of recombinant human PCSK9, V5-, His-tagged (Q8NBP7 31-692 limits assumed): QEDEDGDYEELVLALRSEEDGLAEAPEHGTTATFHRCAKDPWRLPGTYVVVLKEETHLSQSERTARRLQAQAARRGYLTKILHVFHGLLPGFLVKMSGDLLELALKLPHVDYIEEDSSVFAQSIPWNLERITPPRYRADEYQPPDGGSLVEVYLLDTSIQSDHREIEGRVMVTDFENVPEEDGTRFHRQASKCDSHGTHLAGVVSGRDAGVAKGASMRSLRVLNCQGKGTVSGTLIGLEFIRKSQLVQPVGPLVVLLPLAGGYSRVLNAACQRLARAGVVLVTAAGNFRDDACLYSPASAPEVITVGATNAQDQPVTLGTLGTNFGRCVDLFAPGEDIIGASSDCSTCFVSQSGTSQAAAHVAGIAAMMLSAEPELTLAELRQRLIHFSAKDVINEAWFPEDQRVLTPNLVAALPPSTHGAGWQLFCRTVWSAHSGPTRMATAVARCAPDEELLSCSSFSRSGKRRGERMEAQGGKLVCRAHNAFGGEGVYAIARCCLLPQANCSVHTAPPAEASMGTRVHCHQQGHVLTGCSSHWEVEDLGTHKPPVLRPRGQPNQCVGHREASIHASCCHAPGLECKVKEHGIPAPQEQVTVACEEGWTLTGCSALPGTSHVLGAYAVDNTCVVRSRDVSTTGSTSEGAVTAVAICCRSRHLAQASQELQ

B1: 3CX3D02 (Fab, V domains shown)
VH: QVQLVQSGAEVKKPGESLKISCKGSGYSFTNSWIGWVRQMPGKGLEWMGIIYPSDSYTIYSPSFQGQVTISADKSISTAYLQWSSLKASDTAMYYCARGGGYYYALMDVWAQGTLVTVSS
VL: DIQMTQSPSSLSASVGDRVTITCRASQTISTWLNWYQQKPGKAPKLLIYAASSLQSGVPSRFSGSGSGTDFTLTISSLQPEDFATYYCLQDSSLPLTFGQGTKVEIKR
IC50, Exopolar assay: reversal of PCSK9-dependent loss of cellular diI-LDL uptake, Fab titrated against fixed PCSK9 (25 µg/ml): 269 nM
